Reference: patent US20240261333A1 (published 2024)
One block for each binder: values may come before it.

Key:
Experiment in all cases: co-IP with anti-FLAG, N-FLAG B3GNT2, mass spectrometry
GEMIN4 = biological target: T1, GEMIN4 (human, UniProt P57678 1-1058)
T1 construct: also called NP_056536.2 (+2)
T1 sequence (looked up): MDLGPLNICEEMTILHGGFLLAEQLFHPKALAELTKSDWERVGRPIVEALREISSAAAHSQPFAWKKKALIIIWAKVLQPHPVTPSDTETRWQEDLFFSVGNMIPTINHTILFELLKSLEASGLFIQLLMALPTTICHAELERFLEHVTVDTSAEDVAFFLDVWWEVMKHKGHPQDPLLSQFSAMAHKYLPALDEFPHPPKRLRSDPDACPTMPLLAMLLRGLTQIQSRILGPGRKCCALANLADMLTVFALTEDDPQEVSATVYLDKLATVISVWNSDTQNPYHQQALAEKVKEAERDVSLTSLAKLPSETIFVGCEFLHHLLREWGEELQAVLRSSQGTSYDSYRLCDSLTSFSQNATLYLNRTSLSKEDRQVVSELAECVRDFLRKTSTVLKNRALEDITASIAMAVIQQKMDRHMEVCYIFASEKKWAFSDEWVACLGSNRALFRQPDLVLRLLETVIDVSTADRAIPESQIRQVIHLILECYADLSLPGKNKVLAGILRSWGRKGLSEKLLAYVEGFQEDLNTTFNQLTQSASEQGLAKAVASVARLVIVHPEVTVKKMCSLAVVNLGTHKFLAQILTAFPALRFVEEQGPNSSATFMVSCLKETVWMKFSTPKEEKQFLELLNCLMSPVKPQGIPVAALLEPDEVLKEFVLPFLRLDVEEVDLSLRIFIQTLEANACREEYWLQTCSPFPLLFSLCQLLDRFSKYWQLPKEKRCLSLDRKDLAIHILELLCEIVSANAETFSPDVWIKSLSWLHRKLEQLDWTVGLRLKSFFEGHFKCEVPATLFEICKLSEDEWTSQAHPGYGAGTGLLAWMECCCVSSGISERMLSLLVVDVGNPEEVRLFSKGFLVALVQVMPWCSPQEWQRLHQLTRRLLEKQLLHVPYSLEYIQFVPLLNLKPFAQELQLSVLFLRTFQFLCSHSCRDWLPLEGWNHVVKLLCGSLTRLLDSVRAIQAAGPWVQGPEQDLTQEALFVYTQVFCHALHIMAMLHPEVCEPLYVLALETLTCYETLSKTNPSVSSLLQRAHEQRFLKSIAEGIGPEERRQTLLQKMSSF
Description: (§1) Cells were plated in 10-cm cell culture dishes and grown to 60-80% confluency. For each condition, two biological replicates were harvested for co-IP. Cells were washed with PBS and 4 mL of lysis buffer (20 mM HEPES, 1% Triton X-100, 150 mM NaCl, 1 mM EDTA, and 10% glycerol) containing protease inhibitor cocktail was added. Cells were scraped and lysate was incubated at 4° C. under rotary agitation for 1 h. Lysate was centrifuged at 14,000×g for 10 min at 4° C. Supernatant was transferred to a new tube and an aliquot was taken as the input. […] For Western blots, 10 μg/mL Chicken Anti-FLAG (Aves labs ET-DY100) and IgY control (R&D Systems AB-101-C) antibodies were biotinylated (Thermo Fisher Scientific 90407) and added to the respective conditions. Lysates with antibodies were incubated at 4° C. under rotary agitation overnight. For each mL of lysate, 50 μL of Pierce Protein A/G Magnetic Beads (Mass spectrometry; Thermo Fisher Scientific 88803) or Pierce Streptavidin Magnetic Beads (Western blot; Thermo Fisher Scientific 88817) was washed twice with lysis buffer. Lysates with antibodies were added to the beads and incubated at 4° C. under rotary agitation for 4 h. Beads were washed with lysis buffer 3 times and resuspended in lysis buffer for storage.
(§2) Magnetic beads were resuspended in 100 mM Tris pH 7.8, reduced, alkylated and digested with trypsin at 37° ° C. overnight. This solution was subjected to solid phase extraction to concentrate the peptides and remove unwanted reagents followed by injection onto a Shimadzu HPLC with fraction collector. Eight fractions were collected and after concentration were injected on a Waters NanoAcquity HPLC equipped with a self-packed Aeris 3 μm C18 analytical column 0.075 mm by 20 cm, (Phenomenex). Peptides were eluted using standard reverse-phase gradients. The effluent from the column was analyzed using a Thermo Orbitrap Elite mass spectrometer (nanospray configuration) operated in a data dependent manner for 54 minutes. The resulting fragmentation spectra were correlated against the known database using Proteome Discover 1.4 (Thermo Fisher Scientific).

FLG = biological target: T2, FLG (human, UniProt P20930 1-4061, limits assumed)
T2 construct: also called NP_002007.1
Description: as §1, §2

TGM1 = biological target: T3, TGM1 (human, UniProt P22735 1-817, limits assumed)
T3 construct: also called NP_000350.1
T3 sequence (looked up): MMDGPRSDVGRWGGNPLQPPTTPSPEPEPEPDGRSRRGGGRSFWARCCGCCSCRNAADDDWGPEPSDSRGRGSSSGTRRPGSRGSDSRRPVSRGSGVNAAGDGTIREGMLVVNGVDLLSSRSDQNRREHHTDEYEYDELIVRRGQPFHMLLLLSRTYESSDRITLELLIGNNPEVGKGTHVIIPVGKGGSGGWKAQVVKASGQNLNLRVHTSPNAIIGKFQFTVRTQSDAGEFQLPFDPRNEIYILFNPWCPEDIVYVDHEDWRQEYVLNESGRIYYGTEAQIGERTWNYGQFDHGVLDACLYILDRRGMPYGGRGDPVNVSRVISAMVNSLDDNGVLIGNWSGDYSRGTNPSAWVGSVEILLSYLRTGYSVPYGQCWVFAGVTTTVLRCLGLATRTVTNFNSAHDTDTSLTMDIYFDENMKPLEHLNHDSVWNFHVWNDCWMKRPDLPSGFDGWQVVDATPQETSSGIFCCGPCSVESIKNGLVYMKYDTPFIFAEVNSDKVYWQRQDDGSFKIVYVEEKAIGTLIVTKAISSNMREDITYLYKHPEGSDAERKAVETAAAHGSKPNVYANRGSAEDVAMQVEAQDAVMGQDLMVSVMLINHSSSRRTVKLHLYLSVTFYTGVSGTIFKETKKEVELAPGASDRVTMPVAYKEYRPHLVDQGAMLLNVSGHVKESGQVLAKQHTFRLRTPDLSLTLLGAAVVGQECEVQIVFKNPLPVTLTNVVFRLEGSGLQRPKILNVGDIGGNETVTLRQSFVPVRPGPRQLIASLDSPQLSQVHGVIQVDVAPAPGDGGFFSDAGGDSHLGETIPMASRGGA
Description: as §1, §2

T2 sequence (P20930 whole entry): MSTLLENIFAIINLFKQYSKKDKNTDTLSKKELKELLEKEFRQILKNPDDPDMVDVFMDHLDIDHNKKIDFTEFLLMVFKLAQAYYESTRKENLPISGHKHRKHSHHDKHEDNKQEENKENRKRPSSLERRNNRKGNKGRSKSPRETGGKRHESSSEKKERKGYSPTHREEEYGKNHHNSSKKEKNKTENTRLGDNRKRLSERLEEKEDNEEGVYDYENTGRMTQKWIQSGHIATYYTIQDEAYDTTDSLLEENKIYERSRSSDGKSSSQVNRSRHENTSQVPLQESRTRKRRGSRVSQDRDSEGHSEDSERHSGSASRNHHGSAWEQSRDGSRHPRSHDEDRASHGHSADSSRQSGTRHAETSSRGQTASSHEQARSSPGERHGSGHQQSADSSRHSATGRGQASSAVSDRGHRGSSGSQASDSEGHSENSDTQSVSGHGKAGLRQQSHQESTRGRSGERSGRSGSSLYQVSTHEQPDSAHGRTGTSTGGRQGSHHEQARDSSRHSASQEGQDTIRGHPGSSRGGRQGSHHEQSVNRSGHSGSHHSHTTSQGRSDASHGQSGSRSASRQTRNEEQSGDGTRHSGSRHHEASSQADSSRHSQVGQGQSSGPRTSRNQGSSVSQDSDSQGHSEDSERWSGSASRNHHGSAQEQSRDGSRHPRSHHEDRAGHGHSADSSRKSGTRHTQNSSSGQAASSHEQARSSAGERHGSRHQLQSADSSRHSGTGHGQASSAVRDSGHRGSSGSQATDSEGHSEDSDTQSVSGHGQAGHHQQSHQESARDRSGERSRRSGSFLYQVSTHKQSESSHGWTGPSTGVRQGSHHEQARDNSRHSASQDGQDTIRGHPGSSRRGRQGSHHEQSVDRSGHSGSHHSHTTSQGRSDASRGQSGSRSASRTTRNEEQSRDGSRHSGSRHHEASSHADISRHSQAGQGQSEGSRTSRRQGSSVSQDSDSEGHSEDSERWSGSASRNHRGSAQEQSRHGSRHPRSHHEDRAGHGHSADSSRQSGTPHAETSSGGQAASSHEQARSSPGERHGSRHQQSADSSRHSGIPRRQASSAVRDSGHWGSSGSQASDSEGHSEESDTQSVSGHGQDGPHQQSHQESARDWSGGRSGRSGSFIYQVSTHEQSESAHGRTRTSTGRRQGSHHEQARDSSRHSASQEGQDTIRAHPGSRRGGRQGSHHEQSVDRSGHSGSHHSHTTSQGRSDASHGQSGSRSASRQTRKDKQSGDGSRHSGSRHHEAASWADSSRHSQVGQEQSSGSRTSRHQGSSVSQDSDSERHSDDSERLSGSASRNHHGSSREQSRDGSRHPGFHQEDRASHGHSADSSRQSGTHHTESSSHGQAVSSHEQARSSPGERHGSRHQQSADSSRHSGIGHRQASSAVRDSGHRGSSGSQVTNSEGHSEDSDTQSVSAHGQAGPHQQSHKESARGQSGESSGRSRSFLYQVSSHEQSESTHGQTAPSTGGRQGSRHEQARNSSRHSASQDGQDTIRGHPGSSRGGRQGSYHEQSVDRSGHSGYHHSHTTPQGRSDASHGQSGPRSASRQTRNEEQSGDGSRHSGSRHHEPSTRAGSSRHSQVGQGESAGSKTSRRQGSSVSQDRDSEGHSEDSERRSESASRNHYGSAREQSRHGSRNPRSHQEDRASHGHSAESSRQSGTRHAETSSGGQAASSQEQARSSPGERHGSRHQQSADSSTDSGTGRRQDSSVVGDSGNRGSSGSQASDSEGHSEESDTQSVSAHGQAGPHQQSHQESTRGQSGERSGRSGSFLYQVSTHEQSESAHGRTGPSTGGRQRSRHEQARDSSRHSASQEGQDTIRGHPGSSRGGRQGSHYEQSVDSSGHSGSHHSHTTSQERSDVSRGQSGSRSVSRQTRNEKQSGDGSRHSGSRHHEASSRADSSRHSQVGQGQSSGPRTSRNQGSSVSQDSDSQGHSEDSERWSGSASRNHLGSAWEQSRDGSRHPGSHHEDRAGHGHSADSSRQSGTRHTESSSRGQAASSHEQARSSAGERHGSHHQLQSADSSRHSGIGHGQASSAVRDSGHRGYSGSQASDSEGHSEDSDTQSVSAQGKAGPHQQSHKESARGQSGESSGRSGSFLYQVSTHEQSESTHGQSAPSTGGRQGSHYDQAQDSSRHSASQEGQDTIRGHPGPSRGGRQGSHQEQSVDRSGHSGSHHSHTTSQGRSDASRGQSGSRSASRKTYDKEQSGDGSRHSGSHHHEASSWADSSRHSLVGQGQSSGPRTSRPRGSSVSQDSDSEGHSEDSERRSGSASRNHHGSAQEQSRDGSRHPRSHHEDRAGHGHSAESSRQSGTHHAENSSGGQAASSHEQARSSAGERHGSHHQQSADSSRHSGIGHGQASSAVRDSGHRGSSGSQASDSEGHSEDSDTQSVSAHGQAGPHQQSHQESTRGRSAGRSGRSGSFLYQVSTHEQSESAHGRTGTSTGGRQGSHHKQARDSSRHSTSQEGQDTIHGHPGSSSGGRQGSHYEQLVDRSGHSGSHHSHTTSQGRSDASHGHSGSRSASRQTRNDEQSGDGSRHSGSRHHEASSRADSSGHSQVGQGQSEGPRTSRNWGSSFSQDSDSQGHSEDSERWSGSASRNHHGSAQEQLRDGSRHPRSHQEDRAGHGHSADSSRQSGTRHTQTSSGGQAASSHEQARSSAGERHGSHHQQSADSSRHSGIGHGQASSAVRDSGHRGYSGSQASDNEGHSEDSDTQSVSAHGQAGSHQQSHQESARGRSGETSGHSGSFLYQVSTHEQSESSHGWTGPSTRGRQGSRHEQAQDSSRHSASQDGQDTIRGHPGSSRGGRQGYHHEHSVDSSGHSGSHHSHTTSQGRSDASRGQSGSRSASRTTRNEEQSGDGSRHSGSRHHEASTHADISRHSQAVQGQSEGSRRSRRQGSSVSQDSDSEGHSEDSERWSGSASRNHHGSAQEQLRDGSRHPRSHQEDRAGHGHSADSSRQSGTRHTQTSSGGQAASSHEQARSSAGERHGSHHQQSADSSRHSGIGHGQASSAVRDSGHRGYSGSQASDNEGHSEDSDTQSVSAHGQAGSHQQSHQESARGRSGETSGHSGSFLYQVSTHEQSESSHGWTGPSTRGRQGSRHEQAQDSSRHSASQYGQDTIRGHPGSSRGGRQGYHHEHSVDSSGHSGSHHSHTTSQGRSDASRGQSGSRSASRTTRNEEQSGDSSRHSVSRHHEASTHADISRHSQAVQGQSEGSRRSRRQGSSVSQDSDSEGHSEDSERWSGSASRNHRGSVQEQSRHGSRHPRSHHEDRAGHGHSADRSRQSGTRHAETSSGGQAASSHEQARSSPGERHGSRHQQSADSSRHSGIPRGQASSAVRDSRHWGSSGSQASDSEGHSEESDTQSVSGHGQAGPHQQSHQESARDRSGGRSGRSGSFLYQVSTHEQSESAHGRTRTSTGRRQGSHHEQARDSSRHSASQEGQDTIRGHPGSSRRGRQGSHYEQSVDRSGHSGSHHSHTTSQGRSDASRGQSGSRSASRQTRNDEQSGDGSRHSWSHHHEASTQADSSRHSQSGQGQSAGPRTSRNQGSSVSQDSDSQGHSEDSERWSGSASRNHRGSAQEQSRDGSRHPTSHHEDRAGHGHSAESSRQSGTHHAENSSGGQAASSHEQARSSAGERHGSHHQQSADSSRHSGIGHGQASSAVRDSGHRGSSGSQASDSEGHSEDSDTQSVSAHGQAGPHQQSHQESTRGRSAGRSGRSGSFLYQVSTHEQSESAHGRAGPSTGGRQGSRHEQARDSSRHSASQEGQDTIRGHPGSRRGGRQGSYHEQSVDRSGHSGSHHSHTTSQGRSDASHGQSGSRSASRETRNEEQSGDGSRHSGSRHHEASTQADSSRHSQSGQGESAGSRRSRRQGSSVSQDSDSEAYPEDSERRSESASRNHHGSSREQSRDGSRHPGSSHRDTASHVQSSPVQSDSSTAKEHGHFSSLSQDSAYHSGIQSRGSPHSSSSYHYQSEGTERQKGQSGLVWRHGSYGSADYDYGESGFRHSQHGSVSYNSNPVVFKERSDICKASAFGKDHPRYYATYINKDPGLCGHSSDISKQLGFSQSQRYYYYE

co-IP mass spectrometry count (GEMIN4): 0
co-IP mass spectrometry count (FLG): 29
B1: N-terminal FLAG tagged B3GNT2 (enzyme, human, UniProt Q9NY97 1-397, looked up)
chain: MSVGRRRIKLLGILMMANVFIYFIMEVSKSSSQEKNGKGEVIIPKEKFWKISTPPEAYWNREQEKLNRQYNPILSMLTNQTGEAGRLSNISHLNYCEPDLRVTSVVTGFNNLPDRFKDFLLYLRCRNYSLLIDQPDKCAKKPFLLLAIKSLTPHFARRQAIRESWGQESNAGNQTVVRVFLLGQTPPEDNHPDLSDMLKFESEKHQDILMWNYRDTFFNLSLKEVLFLRWVSTSCPDTEFVFKGDDDVFVNTHHILNYLNSLSKTKAKDLFIGDVIHNAGPHRDKKLKYYIPEVVYSGLYPPYAGGGGFLYSGHLALRLYHITDQVHLYPIDDVYTGMCLQKLGLVPEKHKGFRTFDIEEKNKNNICSYVDLMLVHSRKPQEMIDIWSQLQSAHLKC
notes: FLAG-tagged ORF overexpressed in cells; pulled down from lysate with mouse anti-FLAG; also called N-FLAG B3GNT2; N-term FLAG; not shown: N-terminal FLAG tag

co-IP/MS count, N-term FLAG (TGM1): 17
B2: N-terminal FLAG tagged B3GNT2 (enzyme, human, UniProt Q9NY97 1-397, looked up)
chain: B1 chain
notes: FLAG-tagged ORF overexpressed in A375 cells; pulled down from the lysate with mouse anti-FLAG; also called N-FLAG B3GNT2; N-term FLAG; not shown: N-terminal FLAG tag
